Assay: Fatty acid binding of fluorescently labeled I-FABP probes (fluorescence ratio)
Conditions: FFA binding; ADIFAB2 compared with ADIFAB
Protocol: In a preferred embodiment, a fluorescently-labeled FABP is acrylodan-derived recombinant rat intestinal fatty acid binding protein (referred to as ADIFAB). Derivatization with acrylodan was performed using known methods substantially as previously described (U.S. Pat. No. 5,470,714 & Richieri, G. V, et al., J. Biol. Chem., (1992) […]: 23495–23501), and ADIFAB is commercially available (FFA Sciences LLC, San Diego, Calif. ). Concentrations of FFAu can be determined by the binding of the FFAu to the fluorescently labeled fatty acid binding protein (FABP). […] The concentration of FFAu can be determined from the fluorescence difference. […] It will be understood that those skilled in the art can readily substitute other fluorescently-labeled FABP in the disclosed assay.
The assay for determination of FFAu levels in aqueous samples measures the intensity of a shift in fluorescence from a first wavelength, at which the derivatized FABP fluoresces when no FFA is bound, to a second wavelength, at which the derivatized FABP fluoresces when a molecule of FFA is bound, and the concentration of FFAu is then determined from the ratio (“R” value) of the two intensities of fluorescence wavelengths as described in U.S. Pat. No. 5,470,714 and Richieri, et al. (1995) J. Lipid Research, vol. […] Briefly, the ratio is calculated using the following formula: […]

B1: ADIFAB2: acrylodan-derivatized rat intestinal fatty acid binding protein (I-FABP) with substitution of Ala for Leu at position 72 (protein, UniProt P02693 2-132, looked up, variant L72A)
Fatty acid-binding protein, …: AFDGTWKVDRNENYEKFMEKMGINVVKRKLGAHDNLKLTITQEGNKFTVKESSNFRNIDVVFELGVDFAYSAADGTELTGTWTMEGNKLVGKFKRVDNGKELIAVREISGNELIQTYTYEGVEAKRIFKKE
modifications: acrylodan label
binding affinities relative to ADIFAB: about 10 fold

— patent US7202089B2, “Early diagnosis of stroke” (priority 2001, dated 2007)
